Test system: MS2 coat protein
Assay: apparent KD of MS2 coat protein; designed switch direction (-1 OFF switch, 1 ON switch): 1; higher = weaker reporter binding
How it was run: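 An oligonucleotide input, 200 uM small-molecule ligand, or no input was present during titration of SNAP-549-labelled MS2 coat protein, which was doubled from 0.7 or 1.5 nM to 3 µM. Designed RNA switches had been transcribed on Illumina chips by stalled E. coli RNA polymerase. Apparent KD per design is the median over clusters of curves fitted to normalised cluster fluorescence.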

[1] = input ligand: microRNA oligo, concentration not stated
[2] = Eterna round: R95, input ligand: FMN 200 uM
[3] = Eterna round: R95, input ligand: microRNA oligo, concentration not stated
[4] = Eterna round: R95, input ligand: none

Row | Sequence | apparent KD of MS2 coat protein (input ligand: FMN 200 uM) | apparent KD of MS2 coat protein [1] | apparent KD of MS2 coat protein (input ligand: none) | apparent KD of MS2 coat protein [2] | apparent KD of MS2 coat protein [3] | apparent KD of MS2 coat protein [4]
1 | AAGGGCGGAAACAACAUGAGGAUCACCCAUGUUGCCGAAAGGCAGGAUAUCCGGCGAAAGCAGAAGGAGAAGGGUCAAGAACCA [AK SSNG3-V2-42.1] (Eterna round: R96, puzzle: Same State NG 3) | 39 nM | 16 nM | 22.5 nM |  |  | 
2 | AAGUUACUAUCUCAGGAUAUCAUGUCAAAGACAUGAGGAUCACCCAUGUACCAGGAAACUGGUUAUGAGAAGGGAGAUAGUAACG [Mat - Same State 2 - Mod - D53] (puzzle: Same State 2) |  |  |  | 497 nM | 149 nM | 443 nM
3 | AAUAAACAUGAGGAUCACCCAUGUAAUAUAAAUGGAGGAUAUGCAAUUAUUAAUUAUUAAGUAGAAGGUCGAAUAA [Lollin - Epsilon 1] (Eterna round: R96, puzzle: Same State 1) |  | 67.5 nM |  |  |  | 
4 | AAUAAACAUGAGGAUCACCCAUGUAAUAUAAAUGGAGGAUAUGCAAUUAUUAAUUAUUAAGUAGAAGGUCGAAUAA [Lollin - Epsilon 1] (puzzle: Same State 1) |  |  |  | 62.1 nM | 55.7 nM | 91.2 nM
5 | AAUAAAGUCAGUAAGGAUAUCCAAAUGGCGACAUGAGGAUCACCCAUGUAAGAAACCCGACAUCGGGAGAAGGUACAUGACGAUG [Enlaorle] (puzzle: Same State 2) |  |  |  | 87.9 nM | 124 nM | 127 nM
6 | AAUAAGUUCAGCUCGUCUUGCGCCGACUGACAUGAGGAUCACCCAUGUGGAUUCCAAGGAAUCCAUUGGCGUGUUUC [Ororer] (puzzle: Sensor for hsa-mir-208a) |  |  |  | 34.8 nM | 54.3 nM | 24.8 nM
7 | AAUUAACAUGAGGAUCACCCAUGUCGUAUUAUGGGAGGAUAUACGUGGACCGUAGUCCGCGUAGAAGGCCUAAUUA [Mat - Same State 1 - Mod of JL - D21] (Eterna round: R96, puzzle: Same State 1) | 21 nM | 34.5 nM | 38.2 nM |  |  | 
8 | AAUUAACAUGAGGAUCACCCAUGUCGUAUUAUGGGAGGAUAUACGUGGACCGUAGUCCGCGUAGAAGGCCUAAUUA [Mat - Same State 1 - Mod of JL - D21] (puzzle: Same State 1) |  |  |  |  | 34.6 nM | 
9 | AAUUAAGAUCAAGGAUAUCACGUCGUUUAGACGUGAGAAGGUGAUCAUAACAUGAGGAUCACCCAUGUAUUACAUGAAUUAAUU [SSNG1/2-B3] (Eterna round: R96, puzzle: Same State NG 1) | 72.4 nM | 404 nM | 370 nM |  |  | 
10 | AAUUAAGAUCAAGGAUAUCACGUCGUUUAGACGUGAGAAGGUGAUCCAUACAUGAGGAUCACCCAUGUAUAACAUGAAUUAAUU [SSNG1/8-B3] (Eterna round: R96, puzzle: Same State NG 1) | 180 nM | 1160 nM | 698 nM |  |  | 
11 | AAUUAAGAUCGAGGAUAUCACGUCGAAUAGACGUGAGAAGGCGAUCAUAACAUGAGGAUCACCCAUGUAUUACAUGAAUUAAUU [SSNG1/4-B1] (Eterna round: R96, puzzle: Same State NG 1) | 23.6 nM | 22.9 nM | 27 nM |  |  | 
12 | AAUUAAGAUCUAGGAUAUCACGUCGAUUAGACGUGAGAAGGAGAUCAUAACAUGAGGAUCACCCAUGUAUUACAUGAAUUAAUU [SSNG1/6-B2] (Eterna round: R96, puzzle: Same State NG 1) |  | 23.4 nM |  |  |  | 
13 | AAUUAAUUAAUACAUGAGGAUCACCCAUGUAAUUAUUAGAUCAAGGAUAUCAGCUCGAUUAGAGCUGAGAAGGUGAUCACAUGU [SSNG3/18-A2] (Eterna round: R96, puzzle: Same State NG 3) |  | 282 nM |  |  |  | 
14 | AAUUAAUUAAUACAUGAGGAUCACCCAUGUAAUUAUUAGAUCUAGGAUAUCAGCUCGUUUAGAGCUGAGAAGGAGAUCACAUGU [SSNG3/18-B3] (Eterna round: R96, puzzle: Same State NG 3) |  | 15.1 nM |  |  |  | 
15 | AAUUAUUAACAUGAGGAUCACCCAUGUAAAACAUGGAUUAACAAGCCUUUUCGUUUUUGCUCGUCUUAUAUUAUUAA [Bojan's Design] (puzzle: Sensor for hsa-mir-208a version 2) |  |  |  | 167 nM |  | 199 nM
16 | AAUUAUUAACAUGAGGAUCACCCAUGUAUAAGGGAGAAUAUUAUUAUUAUUAUUAACAAGCUUUUUGCUUGUCUCAU [Ribo-boogie] (puzzle: Sensor for hsa-mir-208a version 2) |  |  |  | 48.6 nM | 67.9 nM | 68.4 nM

Row | Sequence | apparent KD of MS2 coat protein (input ligand: FMN 200 uM) | apparent KD of MS2 coat protein [1] | apparent KD of MS2 coat protein (input ligand: none) | apparent KD of MS2 coat protein [2] | apparent KD of MS2 coat protein [3] | apparent KD of MS2 coat protein [4]
17 | AAUUGUUCCUGAGGAUAUCAGUAGUUUGCUUUUUGAGAAGGCAGUACAUGAGGAUCACCCAUGUUGUGGUUUGAUAGAAUGAUA [JR_SSNG1_Sub005] (Eterna round: R96, puzzle: Same State NG 1) | 184 nM | 101 nM | 180 nM |  |  | 
18 | AAUUUAAUACAUGAGGAUCACCCAUGUAAAUUAAUUAAGAUCUAGGAUAUCAGCUCGAUUAGAGCUGAGAAGGAGAUCACAUGU [SSNG3/19-B2] (Eterna round: R96, puzzle: Same State NG 3) |  | 12 nM |  |  |  | 
19 | AAUUUAAUACAUGAGGAUCACCCAUGUAAUACUAGUAAGAUCUAGGAUAUCAGCUCGUUUAGAGCUGAGAAGGAGAUCACAUGU [SSNG3/19-C3] (Eterna round: R96, puzzle: Same State NG 3) |  | 62.1 nM |  |  |  | 
20 | ACAAGCUUUUCUGCAUUGAAAGGUUGGUUACAUGAGGAUCACCCAUGUUUUUAUGAAAAUAAUGCUCCUCGUCUUAU [JR_SHM208A_Sub093] (puzzle: Sensor for hsa-mir-208a) |  |  |  | 264 nM | 19.8 nM | 252 nM
21 | ACAAGCUUUUUAGGAGAGAAAGGUGGGAAACAUGAGGAUCACCCAUGUAUGGUAGUGAAUAGUGGAACUCGUCUUAU [JR_SHM208A_Sub081] (puzzle: Sensor for hsa-mir-208a) |  |  |  | 400 nM | 104 nM | 462 nM
22 | ACAAGCUUUUUAGGAGAGAAAGGUGGGAUACAUGAGGAUCACCCAUGUAUGGUAGUUAAUAGUGGACCUCGUCUUAU [JR_SHM208A_Sub082] (puzzle: Sensor for hsa-mir-208a) |  |  |  | 46.5 nM | 21.7 nM | 64.1 nM
23 | ACAAGCUUUUUGCUCAUCUUAUGUCCGAAACAUGAGGAUCACCCAUGUAUAGAUUAUGUGUUGUUUUUGAUACAAGA [JR_SHM208A_Sub064] (puzzle: Sensor for hsa-mir-208a) |  |  |  | 32.1 nM | 24.9 nM | 33.1 nM
24 | ACAAGCUUUUUUGUAGUGAAAGGUGGGAUACAUGAGGAUCACCCAUGUAUUGUUGUUAAUAUUUGUCCUCGUCUUAU [JR_SHM208A_Sub085] (puzzle: Sensor for hsa-mir-208a) |  |  |  | 31.8 nM | 13.9 nM | 36.3 nM
25 | ACAUGAAAUUGAGGAUAUUUUGUACCUACAUGUGACAUGAGGAUCACCCAUGUGGUAAGUAUGAGAAAGAAGGCAAAGAUAUGU [Equivalence 11 - Jieux - Same State NG 2] (Eterna round: R96, puzzle: Same State NG 2) | 26.6 nM | 43.3 nM | 51 nM |  |  | 
26 | ACAUGAAAUUUAGGAUAUUUUGUACCUACAUGUGACAUGAGGAUCACCCAUGUGGUAAGUAUAAGAAAGAAGGAAAAGAUAUGU [Equivalence 8 - Jieux - Same State NG 2] (Eterna round: R96, puzzle: Same State NG 2) | 61.1 nM | 41.2 nM | 64.9 nM |  |  | 
27 | ACAUGAGAAAGAGGAUAUUUUGUACCUACAUGUGACAUGAGGAUCACCCAUGUGGUAAGUAUGAGAAAGAAGGCUUAGAUAUGU [Equivalence 13 - Jieux - Same State NG 2] (Eterna round: R96, puzzle: Same State NG 2) | 20.6 nM | 43.1 nM | 61.7 nM |  |  | 
28 | ACAUGAGAAUGAGGAUAUGUUGUACCUACAUGUGACAUGAGGAUCACCCAUGUGGUAAGUAUGAUACAGAAGGCAUAGAUAUGU [Equivalance 62 - Jieux - Same State NG 2] (Eterna round: R96, puzzle: Same State NG 2) | 18.9 nM | 18 nM | 32.2 nM |  |  | 
29 | ACAUGAGAAUUAGGAUAUAUAGUACCUACAUGUGACAUGAGGAUCACCCAUGUGGUAAGUAUGACAUAGAAGGAAUAGAUAUGU [Equivalance 97 - Jieux - Same State NG 2] (Eterna round: R96, puzzle: Same State NG 2) | 66.5 nM | 42.9 nM | 56.8 nM |  |  | 
30 | ACAUGAGACGGAGGAUAUUUUGUACCUACAUGUGACAUGAGGAUCACCCAUGUGGUAAGUAUGAGAAAGAAGGCCGAGAUAUGU [Equivalence 19 - Jieux - Same State NG 2] (Eterna round: R96, puzzle: Same State NG 2) | 14.2 nM | 17.7 nM | 29.6 nM |  |  | 
31 | ACAUGAGACUAAGGAUAUGGUGUACCUACAUGUGACAUGAGGAUCACCCAUGUGGUAAGUAUGACUCAGAAGGUAGAGAUAUGU [Equivalance 75 - Jieux - Same State NG 2] (Eterna round: R96, puzzle: Same State NG 2) | 37.9 nM | 280 nM | 436 nM |  |  | 

From the supplement of paper PMC9170038
